Experimental findings from patent US20230310596A1, “DRUG FOR TREATING TUMOR” (priority 2020, published 2023) are described below.

Like-named read-outs stand apart in the source and are kept apart here.

The test system of the data set is MSI-H or dMMR endometrial cancer. The class given is in vivo, human. As for the experimental part:
Endometrial cancer subjects meeting inclusion criteria were first tested for MMR/MSI status by immunohistochemical or PCR methods, and then grouped according to the MSI-H/dMMR test results; for non-MSI-H/non-dMMR subjects, an anti-PD-L1 antibody and anlotinib hydrochloride (cohort I) were administered, while for MSI-H or dMMR subjects, an anti-PD-L1 antibody (cohort II) was administered, and for patients with disease under control (CR + PR + SD) and tolerable adverse reactions, the administration could be continued until clinical benefits were lost, until the toxicity was intolerable, until PD/iCPD was given by efficacy evaluation, or until the investigator deemed further medication inappropriate. Efficacy evaluations were performed every 6 weeks (42 days) ± 3 days, starting on day 1 of treatment cycle 1, and the efficacy evaluations were performed once every 12 weeks (84 days) ± 3 days after 54 weeks, until the subjects developed disease progression confirmed by oncologic imaging. 1) Histologically or cytologically confirmed unresectable recurrent or metastatic advanced endometrial cancer (previously received 1-2 lines of systemic standard chemotherapy and failed or was intolerant; preliminary neoadjuvant or adjuvant chemotherapy was allowed). 2) It was confirmed that there was at least one measurable lesion according to the Response Evaluation Criteria in Solid Tumors (RECIST 1.1). 3) Age: ≥18 years; ECOG PS scoring: 0-1; an expected survival time of more than 3 months. Anti-PD-L1 antibody injection hu5G11-hIgG1: 1200 mg of the anti-PD-L1 antibody injection (strength: 600 mg/20 mL) was diluted to 250 mL with normal saline, and the infusion time was 60 ± 10 min (from the beginning of the infusion of the anti-PD-L1 antibody injection until the end of the infusion of the anti-PD-L1 antibody injection and the completion of flushing the tube with normal saline (20 mL recommended)). The anti-PD-L1 antibody injection was administered on the first day, and once every 21 days, that is, 21 days were counted as a treatment cycle (d1/q3w). Safety evaluation criteria: the severity of adverse events was determined using the NCI-CTC AE 5.0 criteria. Effectiveness evaluation criteria: disease status was determined using RECIST 1.1, iRECIST criteria. RECIST 1.1 criteria were used as the primary criteria, and iRECIST criteria were used to confirm efficacy. That is, subjects determined to be disease progression (PD) according to RECIST 1.1 criteria were further confirmed according to iRECIST criteria to determine whether to take further medication observation. Primary endpoint: objective response rate (ORR) for IRC evaluation Secondary endpoint: (1) objective response rate (ORR), disease control rate (DCR), duration of response (DOR), progression-free survival (PFS), overall survival (OS), DOR rate (≥ 6 months), and the like evaluated by investigators; (2) the incidence and severity of adverse events (AEs) and serious adverse events (SAEs), and abnormal laboratory test indicators.

Setting [1] is: cohort II, after at least 2 cycles of treatment.
The mark [2] stands for this setting: cohort II, after at least 2 cycles of treatment, listed as anti-PD-L1 antibody.

B1: Cohort II: anti-PD-L1 humanized monoclonal antibody hu5G11-hIgG1, prepared as described in WO2016022630, given as injection (antibody, V domains shown)
VH: QITLKESGPTLVKPTQTLTLTCTVSGFSLSTYGVHWIRQPPGKALEWLGVIWRGVTTDYNAAFMSRLTITKDNSKNQVVLTMNNMDPVDTATYYCARLGFYAMDYWGQGTLVTVSS
VL: DIQMTQSPSSLSASVGDRVTITCKASQSVSNDVAWYQQKPGKAPKLLIYYAANRYTGVPDRFSGSGYGTDFTFTISSLQPEDIATYFCQQDYTSPYTFGQGTKLEIK
modifications: hIgG1 constant regions; VH of hu5G11-hIgG1 and hu5G11-hIgG4; VL of hu5G11-hIgG1 and hu5G11-hIgG4
For the molecule B1, where the note is “cohort II, MSI-H or dMMR subjects, after at least 2 cycles of treatment, RECIST 1.1/iRECIST, antibody 1200 mg d1/q3w”, the “best response CR, number of subjects” value is 0/6. Besides, under setting [1], the “DCR, number of subjects” value is reported as 3/6; the “ORR, number of subjects” value is given as “⅙”; the “best response CR, ratio” value is “(0.00%)”; the “best response PD, ratio” value is recorded as “(50.00%)”. For the same molecule, under setting [1], the “best response PR (partial response), number of subjects” value was “⅙”; the “best response PR, ratio” value is reported as “(16.67%)”; the “best response SD (stable disease), number of subjects” value was 2/6; the “best response SD, ratio” value is “(33.33%)”. Also, under setting [1], the “disease control rate (DCR)” value is “(50.00%)” and the “objective response rate (ORR)” value was “(16.67%)”. Further, under setting [2], the “disease control rate (DCR)” value stood at 50.00% and the “objective response rate (ORR)” value was 16.67%. For the setting “human, in vivo”, the adverse reaction incidence is reported as 67% and the “incidence of adverse reactions above grade 3” value was 16%.
